US20230365662A1
Values joined by “and” are separate entries in the source; they are usually repeats but may differ in a detail not shown here. Identical values can stand only once.

Target: HRgpA-6H (Porphyromonas gingivalis) (UniProt P28784)
Test: ELISA, FASEBA Fab on coated HRgpA-6H

UniProt P28784, sequence (P28784 228-991): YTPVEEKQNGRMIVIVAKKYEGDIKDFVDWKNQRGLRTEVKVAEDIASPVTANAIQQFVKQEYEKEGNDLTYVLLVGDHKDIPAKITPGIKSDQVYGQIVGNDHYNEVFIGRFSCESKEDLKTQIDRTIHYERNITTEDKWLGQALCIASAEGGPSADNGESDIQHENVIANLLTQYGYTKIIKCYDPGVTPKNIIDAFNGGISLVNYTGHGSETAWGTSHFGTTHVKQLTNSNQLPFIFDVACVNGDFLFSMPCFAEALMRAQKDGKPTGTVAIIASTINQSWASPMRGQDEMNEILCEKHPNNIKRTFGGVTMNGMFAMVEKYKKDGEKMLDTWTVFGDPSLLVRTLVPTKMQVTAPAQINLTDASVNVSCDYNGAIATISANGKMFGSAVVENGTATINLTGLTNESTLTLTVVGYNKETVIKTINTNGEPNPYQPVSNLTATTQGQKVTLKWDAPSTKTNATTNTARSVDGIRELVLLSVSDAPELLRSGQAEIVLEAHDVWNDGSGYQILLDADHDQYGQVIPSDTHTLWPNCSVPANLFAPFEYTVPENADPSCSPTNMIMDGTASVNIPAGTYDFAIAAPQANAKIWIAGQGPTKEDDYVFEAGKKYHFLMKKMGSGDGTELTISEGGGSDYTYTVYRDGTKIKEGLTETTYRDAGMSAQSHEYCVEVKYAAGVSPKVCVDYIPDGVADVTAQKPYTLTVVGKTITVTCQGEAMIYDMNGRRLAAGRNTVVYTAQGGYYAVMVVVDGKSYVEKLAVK

B1: KB001 mouse Fab VL T24M (Fab, V domains shown)
VH: EVQLKQSGPGLVAPSQSLSITCTVSGFSLSIYSVHWVRQPPGKGLEWLGMIWGGGSSDYNSALKSRLSISKDNSKSQVFLKMNSLQTDDTAMYYCARNGNFYAMDYWGQGTSVTVSS
VL: QIVLTQSPAIMSASLGERVTMTCMASSSVSSSFLHWYQQKPGSSPQLWIYSTSNLASGVPARFSGSGSGTSYSLTISSMEAEDAATYYCHQYHHSPYIYTFGGGTKLEIK
For B1, the OD450nm was 0.797 and 0.75 and the Ratio OD(Variant)/OD(WT) was 1.04 and 0.975.

B2: KB001 mouse Fab VL S28K (Fab, V domains shown)
VH: EVQLKQSGPGLVAPSQSLSITCTVSGFSLSIYSVHWVRQPPGKGLEWLGMIWGGGSSDYNSALKSRLSISKDNSKSQVFLKMNSLQTDDTAMYYCARNGNFYAMDYWGQGTSVTVSS
VL: QIVLTQSPAIMSASLGERVTMTCTASSKVSSSFLHWYQQKPGSSPQLWIYSTSNLASGVPARFSGSGSGTSYSLTISSMEAEDAATYYCHQYHHSPYIYTFGGGTKLEIK
For B2, the OD450nm was 0.801 and the Ratio OD(Variant)/OD(WT) was 1.07.

B3: KB001 mouse Fab VL S31T (Fab, V domains shown)
VH: EVQLKQSGPGLVAPSQSLSITCTVSGFSLSIYSVHWVRQPPGKGLEWLGMIWGGGSSDYNSALKSRLSISKDNSKSQVFLKMNSLQTDDTAMYYCARNGNFYAMDYWGQGTSVTVSS
VL: QIVLTQSPAIMSASLGERVTMTCTASSSVSTSFLHWYQQKPGSSPQLWIYSTSNLASGVPARFSGSGSGTSYSLTISSMEAEDAATYYCHQYHHSPYIYTFGGGTKLEIK
With B3 the OD450nm was 0.859 and 0.74 and 0.782 and the Ratio OD(Variant)/OD(WT) was 1.02 and 0.876 and 0.925.

B4: KB001 mouse Fab VL S27K (Fab, V domains shown)
VH: EVQLKQSGPGLVAPSQSLSITCTVSGFSLSIYSVHWVRQPPGKGLEWLGMIWGGGSSDYNSALKSRLSISKDNSKSQVFLKMNSLQTDDTAMYYCARNGNFYAMDYWGQGTSVTVSS
VL: QIVLTQSPAIMSASLGERVTMTCTASKSVSSSFLHWYQQKPGSSPQLWIYSTSNLASGVPARFSGSGSGTSYSLTISSMEAEDAATYYCHQYHHSPYIYTFGGGTKLEIK
With B4 the OD450nm was 0.783 and 0.745 and 0.697 and the Ratio OD(Variant)/OD(WT) was 1.04 and 0.993 and 0.929.

B5: KB001 mouse Fab VL S28G (Fab, V domains shown)
VH: EVQLKQSGPGLVAPSQSLSITCTVSGFSLSIYSVHWVRQPPGKGLEWLGMIWGGGSSDYNSALKSRLSISKDNSKSQVFLKMNSLQTDDTAMYYCARNGNFYAMDYWGQGTSVTVSS
VL: QIVLTQSPAIMSASLGERVTMTCTASSGVSSSFLHWYQQKPGSSPQLWIYSTSNLASGVPARFSGSGSGTSYSLTISSMEAEDAATYYCHQYHHSPYIYTFGGGTKLEIK
Binder B5 has an OD450nm of 0.818 and a Ratio OD(Variant)/OD(WT) of 1.09.

B6: KB001 mouse Fab VL S31Y (Fab, V domains shown)
VH: EVQLKQSGPGLVAPSQSLSITCTVSGFSLSIYSVHWVRQPPGKGLEWLGMIWGGGSSDYNSALKSRLSISKDNSKSQVFLKMNSLQTDDTAMYYCARNGNFYAMDYWGQGTSVTVSS
VL: QIVLTQSPAIMSASLGERVTMTCTASSSVSYSFLHWYQQKPGSSPQLWIYSTSNLASGVPARFSGSGSGTSYSLTISSMEAEDAATYYCHQYHHSPYIYTFGGGTKLEIK
Binder B6 has an OD450nm of 0.849 and a Ratio OD(Variant)/OD(WT) of 1.

B7: KB001 mouse Fab VL S26D (Fab, V domains shown)
VH: EVQLKQSGPGLVAPSQSLSITCTVSGFSLSIYSVHWVRQPPGKGLEWLGMIWGGGSSDYNSALKSRLSISKDNSKSQVFLKMNSLQTDDTAMYYCARNGNFYAMDYWGQGTSVTVSS
VL: QIVLTQSPAIMSASLGERVTMTCTADSSVSSSFLHWYQQKPGSSPQLWIYSTSNLASGVPARFSGSGSGTSYSLTISSMEAEDAATYYCHQYHHSPYIYTFGGGTKLEIK
B7 showed an OD450nm of 0.821 and a Ratio OD(Variant)/OD(WT) of 1.05.

B8: KB001 mouse Fab VL S28V (Fab, V domains shown)
VH: EVQLKQSGPGLVAPSQSLSITCTVSGFSLSIYSVHWVRQPPGKGLEWLGMIWGGGSSDYNSALKSRLSISKDNSKSQVFLKMNSLQTDDTAMYYCARNGNFYAMDYWGQGTSVTVSS
VL: QIVLTQSPAIMSASLGERVTMTCTASSVVSSSFLHWYQQKPGSSPQLWIYSTSNLASGVPARFSGSGSGTSYSLTISSMEAEDAATYYCHQYHHSPYIYTFGGGTKLEIK
B8 was tested, and the OD450nm was 0.786 and 0.731 and 0.717 and the Ratio OD(Variant)/OD(WT) was 1.05 and 0.974 and 0.955.

B9: KB001 mouse Fab VL S31P (Fab, V domains shown)
VH: EVQLKQSGPGLVAPSQSLSITCTVSGFSLSIYSVHWVRQPPGKGLEWLGMIWGGGSSDYNSALKSRLSISKDNSKSQVFLKMNSLQTDDTAMYYCARNGNFYAMDYWGQGTSVTVSS
VL: QIVLTQSPAIMSASLGERVTMTCTASSSVSPSFLHWYQQKPGSSPQLWIYSTSNLASGVPARFSGSGSGTSYSLTISSMEAEDAATYYCHQYHHSPYIYTFGGGTKLEIK
For B9, the OD450nm was 0.87 and 0.875 and 0.856 and the Ratio OD(Variant)/OD(WT) was 1.03 and 1.04 and 1.01.

B10: KB001 mouse Fab VL S30G (Fab, V domains shown)
VH: EVQLKQSGPGLVAPSQSLSITCTVSGFSLSIYSVHWVRQPPGKGLEWLGMIWGGGSSDYNSALKSRLSISKDNSKSQVFLKMNSLQTDDTAMYYCARNGNFYAMDYWGQGTSVTVSS
VL: QIVLTQSPAIMSASLGERVTMTCTASSSVGSSFLHWYQQKPGSSPQLWIYSTSNLASGVPARFSGSGSGTSYSLTISSMEAEDAATYYCHQYHHSPYIYTFGGGTKLEIK
In the case of B10, the OD450nm is reported as 0.916 and 0.858 and the Ratio OD(Variant)/OD(WT) is reported as 1.06 and 0.995.

B11: KB001 mouse Fab VL S31E (Fab, V domains shown)
VH: EVQLKQSGPGLVAPSQSLSITCTVSGFSLSIYSVHWVRQPPGKGLEWLGMIWGGGSSDYNSALKSRLSISKDNSKSQVFLKMNSLQTDDTAMYYCARNGNFYAMDYWGQGTSVTVSS
VL: QIVLTQSPAIMSASLGERVTMTCTASSSVSESFLHWYQQKPGSSPQLWIYSTSNLASGVPARFSGSGSGTSYSLTISSMEAEDAATYYCHQYHHSPYIYTFGGGTKLEIK
For B11, the OD450nm was 0.903 and 0.798 and the Ratio OD(Variant)/OD(WT) was 1.07 and 0.944.

B12: KB001 mouse Fab VL T24K (Fab, V domains shown)
VH: EVQLKQSGPGLVAPSQSLSITCTVSGFSLSIYSVHWVRQPPGKGLEWLGMIWGGGSSDYNSALKSRLSISKDNSKSQVFLKMNSLQTDDTAMYYCARNGNFYAMDYWGQGTSVTVSS
VL: QIVLTQSPAIMSASLGERVTMTCKASSSVSSSFLHWYQQKPGSSPQLWIYSTSNLASGVPARFSGSGSGTSYSLTISSMEAEDAATYYCHQYHHSPYIYTFGGGTKLEIK
For B12, the OD450nm was 0.797 and 0.734 and the Ratio OD(Variant)/OD(WT) was 1.04 and 0.954.

B13: KB001 mouse Fab VL A25F (Fab, V domains shown)
VH: EVQLKQSGPGLVAPSQSLSITCTVSGFSLSIYSVHWVRQPPGKGLEWLGMIWGGGSSDYNSALKSRLSISKDNSKSQVFLKMNSLQTDDTAMYYCARNGNFYAMDYWGQGTSVTVSS
VL: QIVLTQSPAIMSASLGERVTMTCTFSSSVSSSFLHWYQQKPGSSPQLWIYSTSNLASGVPARFSGSGSGTSYSLTISSMEAEDAATYYCHQYHHSPYIYTFGGGTKLEIK
With B13 the OD450nm was 0.818 and 0.827 and 0.775 and the Ratio OD(Variant)/OD(WT) was 1.04 and 1.06 and 0.99.

B14: KB001 mouse Fab VL T24H (Fab, V domains shown)
VH: EVQLKQSGPGLVAPSQSLSITCTVSGFSLSIYSVHWVRQPPGKGLEWLGMIWGGGSSDYNSALKSRLSISKDNSKSQVFLKMNSLQTDDTAMYYCARNGNFYAMDYWGQGTSVTVSS
VL: QIVLTQSPAIMSASLGERVTMTCHASSSVSSSFLHWYQQKPGSSPQLWIYSTSNLASGVPARFSGSGSGTSYSLTISSMEAEDAATYYCHQYHHSPYIYTFGGGTKLEIK
B14 showed an OD450nm of 0.795 and a Ratio OD(Variant)/OD(WT) of 1.03.

B15: KB001 mouse Fab VL S28W (Fab, V domains shown)
VH: EVQLKQSGPGLVAPSQSLSITCTVSGFSLSIYSVHWVRQPPGKGLEWLGMIWGGGSSDYNSALKSRLSISKDNSKSQVFLKMNSLQTDDTAMYYCARNGNFYAMDYWGQGTSVTVSS
VL: QIVLTQSPAIMSASLGERVTMTCTASSWVSSSFLHWYQQKPGSSPQLWIYSTSNLASGVPARFSGSGSGTSYSLTISSMEAEDAATYYCHQYHHSPYIYTFGGGTKLEIK
For B15, the OD450nm was 0.817 and 0.745 and the Ratio OD(Variant)/OD(WT) was 1.09 and 0.993.

B16: KB001 mouse Fab VL S26N (Fab, V domains shown)
VH: EVQLKQSGPGLVAPSQSLSITCTVSGFSLSIYSVHWVRQPPGKGLEWLGMIWGGGSSDYNSALKSRLSISKDNSKSQVFLKMNSLQTDDTAMYYCARNGNFYAMDYWGQGTSVTVSS
VL: QIVLTQSPAIMSASLGERVTMTCTANSSVSSSFLHWYQQKPGSSPQLWIYSTSNLASGVPARFSGSGSGTSYSLTISSMEAEDAATYYCHQYHHSPYIYTFGGGTKLEIK
With B16 the OD450nm was 0.823 and 0.749 and the Ratio OD(Variant)/OD(WT) was 1.05 and 0.957.

B17: KB001 mouse Fab VL S28P (Fab, V domains shown)
VH: EVQLKQSGPGLVAPSQSLSITCTVSGFSLSIYSVHWVRQPPGKGLEWLGMIWGGGSSDYNSALKSRLSISKDNSKSQVFLKMNSLQTDDTAMYYCARNGNFYAMDYWGQGTSVTVSS
VL: QIVLTQSPAIMSASLGERVTMTCTASSPVSSSFLHWYQQKPGSSPQLWIYSTSNLASGVPARFSGSGSGTSYSLTISSMEAEDAATYYCHQYHHSPYIYTFGGGTKLEIK
With B17 the OD450nm was 0.808 and 0.726 and the Ratio OD(Variant)/OD(WT) was 1.08 and 0.967.

B18: KB001 mouse Fab VL S30F (Fab, V domains shown)
VH: EVQLKQSGPGLVAPSQSLSITCTVSGFSLSIYSVHWVRQPPGKGLEWLGMIWGGGSSDYNSALKSRLSISKDNSKSQVFLKMNSLQTDDTAMYYCARNGNFYAMDYWGQGTSVTVSS
VL: QIVLTQSPAIMSASLGERVTMTCTASSSVFSSFLHWYQQKPGSSPQLWIYSTSNLASGVPARFSGSGSGTSYSLTISSMEAEDAATYYCHQYHHSPYIYTFGGGTKLEIK
In the case of B18, the OD450nm is reported as 0.911 and the Ratio OD(Variant)/OD(WT) is reported as 1.06.

B19: KB001 mouse Fab VL S31F (Fab, V domains shown)
VH: EVQLKQSGPGLVAPSQSLSITCTVSGFSLSIYSVHWVRQPPGKGLEWLGMIWGGGSSDYNSALKSRLSISKDNSKSQVFLKMNSLQTDDTAMYYCARNGNFYAMDYWGQGTSVTVSS
VL: QIVLTQSPAIMSASLGERVTMTCTASSSVSFSFLHWYQQKPGSSPQLWIYSTSNLASGVPARFSGSGSGTSYSLTISSMEAEDAATYYCHQYHHSPYIYTFGGGTKLEIK
In the case of B19, the OD450nm is reported as 0.854 and 0.688 and 0.693 and the Ratio OD(Variant)/OD(WT) is reported as 1.01 and 0.814 and 0.82.

B20: KB001 mouse Fab VL T24E (Fab, V domains shown)
VH: EVQLKQSGPGLVAPSQSLSITCTVSGFSLSIYSVHWVRQPPGKGLEWLGMIWGGGSSDYNSALKSRLSISKDNSKSQVFLKMNSLQTDDTAMYYCARNGNFYAMDYWGQGTSVTVSS
VL: QIVLTQSPAIMSASLGERVTMTCEASSSVSSSFLHWYQQKPGSSPQLWIYSTSNLASGVPARFSGSGSGTSYSLTISSMEAEDAATYYCHQYHHSPYIYTFGGGTKLEIK
For B20, the OD450nm was 0.852 and 0.81 and the Ratio OD(Variant)/OD(WT) was 1.11 and 1.05.

B21: KB001 mouse Fab VL A25T (Fab, V domains shown)
VH: EVQLKQSGPGLVAPSQSLSITCTVSGFSLSIYSVHWVRQPPGKGLEWLGMIWGGGSSDYNSALKSRLSISKDNSKSQVFLKMNSLQTDDTAMYYCARNGNFYAMDYWGQGTSVTVSS
VL: QIVLTQSPAIMSASLGERVTMTCTTSSSVSSSFLHWYQQKPGSSPQLWIYSTSNLASGVPARFSGSGSGTSYSLTISSMEAEDAATYYCHQYHHSPYIYTFGGGTKLEIK
In the case of B21, the OD450nm is reported as 0.823 and 0.801 and the Ratio OD(Variant)/OD(WT) is reported as 1.05 and 1.02.
